A word on the Kd: it is a measure of binding affinity in units of concentration. A low value points to a tighter complex. A word on the koff: it is the rate constant with which the complex falls apart. High values mean a short-lived complex, low ones a long-lived complex. Broadly, the kon is the second-order rate constant of association.

This is an account of results in PMC9924070 (Science Translational Medicine, 2021).

Test [1] addresses T1, mouse IgG1 Fc-fused SARS-CoV-2 RBD (SARS-CoV-2, UniProt P0DTC2). In words: BLI. The conditions noted are these: both partners purified.
For test [2], the target named is T1, mouse IgG1 Fc-fused SARS-CoV-2 RBD. Put plainly: BLI. The following applies: both partners purified. The source holds these as a separate data set.

B1: humVHH/WT-Fc (Fc fusion)
chain: EVQLVESGGGLVQPGGSLRLSCAASGRTFSEYAMGWFRQAPGKEREFVATISWSGGSTYYTDSVKGRFTISRDNAKNTVYLQMNSLRPEDTAVYYCAAAGLGTVVSEWDYDYDYWGQGTLVTVSS
notes: also called VHH72_h1-GS-hIgG1hinge-hIgG1Fc; construct 4
With B1, in test [1], binding was characterised by a dissociation constant (Kd) of 0.1 nM, the koff is 0.00019 s⁻¹ and the kon worked out at 1.9e+06 M⁻¹ s⁻¹.

B2: humVHH_S56A/LALAPG-Fc/Gen2 (Fc fusion)
chain: DVQLVESGGGLVQPGGSLRLSCAASGRTFSEYAMGWFRQAPGKEREFVATISWSGGATYYTDSVKGRFTISRDNAKNTVYLQMNSLRPEDTAVYYCAAAGLGTVVSEWDYDYDYWGQGTLVTVSS
For B2, in test [2], binding was characterised by a dissociation constant (Kd) of 0.0408 nM, the koff turned out to be 6.16e-05 s⁻¹ and the kon is 1.52e+06 M⁻¹ s⁻¹.

B3: (humVHH)2/WT-Fc (Fc fusion)
chain: EVQLVESGGGLVQPGGSLRLSCAASGRTFSEYAMGWFRQAPGKEREFVATISWSGGSTYYTDSVKGRFTISRDNAKNTVYLQMNSLRPEDTAVYYCAAAGLGTVVSEWDYDYDYWGQGTLVTVSSGGGGSGGGGSGGGGSEVQLVESGGGLVQPGGSLRLSCAASGRTFSEYAMGWFRQAPGKEREFVATISWSGGSTYYTDSVKGRFTISRDNAKNTVYLQMNSLRPEDTAVYYCAAAGLGTVVSEWDYDYDYWGQGTLVTVSS
In test [2], B3 registered a Kd below 0.001 nM, a koff below 1e-07 s⁻¹ and a kon of 2.65e+06 M⁻¹ s⁻¹.

B4: (humVHH_S56A)2/LALAPG-Fc/Gen2 (Fc fusion)
chain: DVQLVESGGGLVQPGGSLRLSCAASGRTFSEYAMGWFRQAPGKEREFVATISWSGGATYYTDSVKGRFTISRDNAKNTVYLQMNSLRPEDTAVYYCAAAGLGTVVSEWDYDYDYWGQGTLVTVSSGGGGSGGGGSGGGGSDVQLVESGGGLVQPGGSLRLSCAASGRTFSEYAMGWFRQAPGKEREFVATISWSGGATYYTDSVKGRFTISRDNAKNTVYLQMNSLRPEDTAVYYCAAAGLGTVVSEWDYDYDYWGQGTLVTVSS
For B4, in test [2], the Kd was below 0.001 nM, the koff is below 1e-07 s⁻¹ and the kon is 2.48e+06 M⁻¹ s⁻¹.
